Results published in publication PMC6141708.

Biological target: recombinant GST-RhoA (UniProt P61586)
Test: pull-down; recombinant GST-RhoA on beads; lysates of 293T cells transfected with WT or S9A Fam65b-GFP; 2 h at 4°C; pull-down buffer; anti-GFP immunoblot, band intensities in the pull-down normalised to the total lysate, four independent experiments

Chain of UniProt P61586 (P61586 whole entry): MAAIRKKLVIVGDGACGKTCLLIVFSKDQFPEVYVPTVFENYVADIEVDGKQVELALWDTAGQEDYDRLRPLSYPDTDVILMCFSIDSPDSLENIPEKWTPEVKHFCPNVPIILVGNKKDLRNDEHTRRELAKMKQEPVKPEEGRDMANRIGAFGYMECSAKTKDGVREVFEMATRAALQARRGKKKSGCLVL

- fold of Fam65b bound to RhoA against WT Fam65b-GFP: 1.8 fold
Substance: Fam65b(S9A)-GFP (isoform 2) (natural protein)
